Key:
SaSS = SaSS (Santalum album, UniProt E3W202, Y539W); test: GC / GC-MS product analysis; type: biochemical; details: data not shown; mutant sequence NCBI JQ690659; assay form of the mutant not described
SaFDS = SaFDS (Santalum album, UniProt E3W209); test: GC / GC-MS of (E,E)-farnesol after alkaline phosphatase; type: biochemical; details: 25 mM HEPES, 10% glycerol, 5 mM DTT, 10 mM MgCl2, pH 7.4, 30 °C
[1] = substrate: CC(C)=CCC/C(C)=C/CC/C(C)=C/CO[P@@](=O)(O)OP(=O)(O)O; test: GC quantification of product, steady-state kinetics; type: biochemical, Santalum album; details: apparent Km, HEPES buffer, 30 °C, 5 min, 5 μM enzyme
Excerpt: GC quantification of product, steady-state kinetics on SaSQS2

[2] = substrate: CC(C)=CCC/C(C)=C/CC/C(C)=C/CO[P@@](=O)(O)OP(=O)(O)O; test: as above; type: biochemical, Santalum album; details: apparent Km, HEPES buffer, 30 °C, 5 min, 5 μM enzyme; remark: listed apart in the source
Excerpt: GC quantification of product, steady-state kinetics on SaSS

[3] = substrate: CC(C)=CCC/C(C)=C/CC/C(C)=C/CO[P@@](=O)(O)OP(=O)(O)O; test: as above; type: biochemical, Santalum album; details: apparent Km, HEPES buffer, 30 °C, 5 min, 5 μM enzyme; remark: listed apart in the source
Excerpt: GC quantification of product, steady-state kinetics on SaBS

[4] = substrate: CC(C)=CCC/C(C)=C/CC/C(C)=C/CO[P@@](=O)(O)OP(=O)(O)O; test: as above; type: biochemical, Santalum album; details: apparent Km, HEPES buffer, 30 °C, 5 min, 5 μM enzyme; remark: listed apart in the source
Excerpt: GC quantification of product, steady-state kinetics on SaSQS1

Chain of SaFDS (E3W209 entry or part of it): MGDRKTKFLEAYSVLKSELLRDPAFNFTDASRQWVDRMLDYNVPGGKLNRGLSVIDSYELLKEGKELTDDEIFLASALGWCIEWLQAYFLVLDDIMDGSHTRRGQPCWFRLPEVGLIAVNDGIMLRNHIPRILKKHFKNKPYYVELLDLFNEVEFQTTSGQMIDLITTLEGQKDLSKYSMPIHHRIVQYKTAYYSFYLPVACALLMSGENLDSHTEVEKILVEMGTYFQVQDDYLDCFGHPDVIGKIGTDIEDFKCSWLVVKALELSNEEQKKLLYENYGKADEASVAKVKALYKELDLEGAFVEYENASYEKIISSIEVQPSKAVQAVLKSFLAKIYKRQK
Chain of SaSS (E3W202 whole entry Y539W): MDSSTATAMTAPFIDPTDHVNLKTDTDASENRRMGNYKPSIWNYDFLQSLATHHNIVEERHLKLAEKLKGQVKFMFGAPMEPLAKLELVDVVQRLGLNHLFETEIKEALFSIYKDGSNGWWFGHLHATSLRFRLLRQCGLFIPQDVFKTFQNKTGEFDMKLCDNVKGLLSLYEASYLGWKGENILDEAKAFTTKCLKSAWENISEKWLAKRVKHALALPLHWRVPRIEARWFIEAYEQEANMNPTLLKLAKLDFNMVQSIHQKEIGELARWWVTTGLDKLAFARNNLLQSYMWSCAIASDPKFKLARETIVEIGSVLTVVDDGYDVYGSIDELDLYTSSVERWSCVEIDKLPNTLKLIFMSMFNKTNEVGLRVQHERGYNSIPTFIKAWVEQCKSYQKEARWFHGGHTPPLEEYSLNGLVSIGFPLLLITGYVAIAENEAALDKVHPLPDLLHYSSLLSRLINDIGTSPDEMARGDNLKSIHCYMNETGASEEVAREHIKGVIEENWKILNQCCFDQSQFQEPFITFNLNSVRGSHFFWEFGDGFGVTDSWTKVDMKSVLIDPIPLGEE

## CC(C)=CCC/C(C)=C/CC/C(C)=C/COP(=O)(O)OP(=O)(O)O [(E,E)-FPP]
SaSS
  GC / GC-MS product analysis: a mutant of SaSS (Y539W, NCBI: JQ690659) was able to cyclize (E,E)-FPP

## CC(C)=CCC/C(C)=C/COP(=O)(O)OP(=O)(O)O [GPP]
SaFDS; with IPP
  GC / GC-MS of (E,E)-farnesol after alkaline phosphatase: Incubation of recombinant SaFDS with equimolar concentrations of IPP and GPP

## C=C(C)CCOP(=O)(O)OP(=O)(O)O [IPP]
SaFDS; with GPP or DMAPP
  GC / GC-MS of (E,E)-farnesol after alkaline phosphatase: Incubation of recombinant SaFDS with equimolar concentrations of IPP and GPP

B1: SaSQS2 (Santalum album) (protein)
chain: MASVIVEPIRCNNDNDVISTVVDDSSVVRRAANYPPNLWDYEFLQSLGDQCTVEEKHLKLADKLKEEVKSLIKQTMEPLTKLEFIDTVRRLGLKYQFETEVKEAVVMVSKYENDAWWIDNLHATSLRFRIMRENGIFVPQDVFERFKDTDGFKNQLCEDVKGLLSLYEASFLGWEGEDILDEARTFATSKLKSIEGKIPSPSLAKKVSHALDLPLHWRTIRYEARWFIDTYEEEEDVNLTLLRYAKLDFNIVQSFHQKEIGRLSRWWVGTGLDKMPFARNGLIQSYMYAIGMLFEPNLGEVREMEAKVGALITTIDDVYDVYGTMEELELFTDITNRWDISKADQLPRNIRMPLLTMFNTSNDIGYWALKERGFNGIPCTAKVWSDQLKSYTKEAKWFHEGHKPTLEEYLDNALVSIGFPNLLVTSYLLTVENPTKEKLDYVNSLPLFVRASCILCRIINDLGTSPDEMERGDNLKSIQCYMNEAGASQEVAREHIEGLVRMWWKRLNKCLFEPSPFAEPFLSFTVNVVRGSHFFYQYGDGYGNAESWTKKQGMSVLIHPIPLNEE
[1]
  Km: 15.30 ± 3.83 µM
  kcat: 0.00233 ± 0.000167 s⁻¹
  kcat/Km: 150 M⁻¹ s⁻¹

B2: SaSS (Santalum album) (protein)
chain: MDSSTATAMTAPFIDPTDHVNLKTDTDASENRRMGNYKPSIWNYDFLQSLATHHNIVEERHLKLAEKLKGQVKFMFGAPMEPLAKLELVDVVQRLGLNHLFETEIKEALFSIYKDGSNGWWFGHLHATSLRFRLLRQCGLFIPQDVFKTFQNKTGEFDMKLCDNVKGLLSLYEASYLGWKGENILDEAKAFTTKCLKSAWENISEKWLAKRVKHALALPLHWRVPRIEARWFIEAYEQEANMNPTLLKLAKLDFNMVQSIHQKEIGELARWWVTTGLDKLAFARNNLLQSYMWSCAIASDPKFKLARETIVEIGSVLTVVDDGYDVYGSIDELDLYTSSVERWSCVEIDKLPNTLKLIFMSMFNKTNEVGLRVQHERGYNSIPTFIKAWVEQCKSYQKEARWFHGGHTPPLEEYSLNGLVSIGFPLLLITGYVAIAENEAALDKVHPLPDLLHYSSLLSRLINDIGTSPDEMARGDNLKSIHCYMNETGASEEVAREHIKGVIEENWKILNQCCFDQSQFQEPFITFNLNSVRGSHFFYEFGDGFGVTDSWTKVDMKSVLIDPIPLGEE
[2]
  Km: 0.59 ± 0.24 µM
  kcat: 0.00833 ± 0.0005 s⁻¹
  kcat/Km: 15000 M⁻¹ s⁻¹

B3: SaBS (Santalum album) (protein)
chain: MDAFATSPTSALIKAVNCIAHVTPMAGEDSSENRRASNYKPSSWDYEFLQSLATSHNTVQEKHMKMAEKLKEEVKSMIKGQMEPVAKLELINILQRLGLKYRFESEIKEELFSLYKDGTDAWWVDNLHATALRFRLLRENGIFVPQDVFETLKDKSGKFKSQLCKDVRGLLSLYEASYLGWEGEDLLDEAKKFSTTNLNNVKESISSNTLGRLVKHALNLPLHWSAARYEARWFIDEYEKEENVNPNLLKYAKFDFNIVQSIHQRELGNLARWWVETGLDKLSFVRNTLMQNFMWGCAMVFEPQYGKVRDAAVKQASLIAMVDDVYDVYGSLEELEIFTDIVDRWDITGIDKLPRNISMILLTMFNTANQIGYDLLRDRGFNGIPHIAQAWATLCKKYLKEAKWYHSGYKPTLEEYLENGLVSISFVLSLVTAYLQTETLENLTYESAAYVNSVPPLVRYSGLLNRLYNDLGTSSAEIARGDTLKSIQCYMTQTGATEEAAREHIKGLVHEAWKGMNKCLFEQTPFAEPFVGFNVNTVRGSQFFYQHGDGYAVTESWTKDLSLSVLIHPIPLNEED
[3]
  Km: 12.59 ± 1.40 µM
  kcat: 0.000667 s⁻¹
  kcat/Km: 50 M⁻¹ s⁻¹

B4: SaSQS1 (Santalum album) (protein)
chain: MDLCQIPPTSPISPSVPFNGDDSSVVRRSANYPANLWDYDFLQSLGRHSSVTEEHVGLAEKLKGEVKSLITGPMEPLAKLEFIDSVRRLGLKYQFETEMKEALANISKDGYDSWWVDNLRATALRFRLLRENGIFVPQDVFERFQNKETGKFKNELCEDVKGLLNLYEASFLGWEGEDILDEARTFSTAQLKNVEGKISSPNLAKIVHHALDLPLHWRAIRYEARWFIDIYEDEEDMNPTLLKYAKLDFNIVQSFHQAEIGRLARWWVGTGLDKLPFARNGLIQSYMYAIGMLFEPHLGEVREMEAKVGALITTIDDVYDVYGTMEELELFTDITERWDINRVDQLPRNIRMPLLTMFNTSNDIGYWALKERGFNGIPYTAKVWADQLKSYTKEAKWFHEGHKPTLEEYLENALVSIGFPNLLVTSYLLTVDNPTKEKLDYVDSLPLFVRASCILCRIINDLGTSPDEMERGDNLKSIQCYMNETGASQEVAREHIEGLVRMWWKRLNKCLFEPSPFTEPFLSFTINVVRGSHFFYQYGDGYGNAESWTKNQGMSVLIHPITLDEE
[4]
  Km: 11.12 ± 2.80 µM
  kcat: 0.00583 ± 0.0005 s⁻¹
  kcat/Km: 500 M⁻¹ s⁻¹
